The target of test [1] is Hck (2PA-YEEI) (UniProt P08631). Nature of the test: SPR; Hck (2PA-YEEI) amine-coupled (EDC/NHS) to a CMD 500 carboxymethyl dextran chip, 6053 RU, BIAcore 2000; Csk, Chk, Chk mutants and chimera as analytes in HBS (10 mM HEPES pH 7.4, 150 mM NaCl, 3.4 mM EDTA, 0.005% Tween 20); global fit to a 1 to 1 model with mass transfer; molecular binding activity from the maximum response. For orientation: In SPR one partner is held on a chip, and binding of the other changes the refractive index at the surface.

The target is the same in test [2]. The description is as above. This is another data set of the same source.

Read-outs that look alike come from different tables or passages of the source.

C-terminal Src kinase (Csk), recombinant, sequence (P41240 whole entry): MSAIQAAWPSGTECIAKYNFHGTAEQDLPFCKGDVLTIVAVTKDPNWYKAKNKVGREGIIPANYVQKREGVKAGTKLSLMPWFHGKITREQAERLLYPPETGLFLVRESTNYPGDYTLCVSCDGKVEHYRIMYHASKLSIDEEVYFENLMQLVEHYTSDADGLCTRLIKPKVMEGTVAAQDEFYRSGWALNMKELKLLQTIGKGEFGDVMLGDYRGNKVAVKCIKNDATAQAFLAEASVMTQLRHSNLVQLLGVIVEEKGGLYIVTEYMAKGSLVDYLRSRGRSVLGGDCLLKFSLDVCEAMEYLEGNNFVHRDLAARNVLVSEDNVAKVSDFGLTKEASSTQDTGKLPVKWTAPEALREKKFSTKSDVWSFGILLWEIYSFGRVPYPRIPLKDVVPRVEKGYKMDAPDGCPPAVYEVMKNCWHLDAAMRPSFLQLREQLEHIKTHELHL

As a reminder, the koff is a measure of how fast the partners let go of each other. In general, kon refers to the second-order rate constant of association. Turning to “Csk-Chk chimera (from UniProt P41240 1-181; P42679 235-482) (enzyme)”, in the test with Hck (2PA-YEEI) [1], the koff worked out at 0.00031 s⁻¹ and the kon amounted to 243 M⁻¹ s⁻¹.
The term Kd denotes the concentration at which binding is half-saturated. In the test with Hck (2PA-YEEI) [1], “C-terminal Src kinase (Csk), recombinant (from UniProt P41240 1-450) (enzyme)” had a Kd of 13.1 µM, a koff of 0.0077 s⁻¹ and a kon of 588 M⁻¹ s⁻¹. Moreover, the molecular binding activity (MBA) at 2.7 μM Csk with Hck (2PA-YEEI) [1] (scale: mol of analyte bound per mol of immobilized Hck) is 0.01. Also, the dissociation constant Kd with Hck (2PA-YEEI) [2] was found to be 13 µM.
Turning to “Chk (R382A) (from UniProt P42679-2 1-508) (enzyme)”, the fold reduction of kon against wild type Chk with Hck (2PA-YEEI) [1] was determined as 3 fold. The substance further came in with a Kd in the test with Hck (2PA-YEEI) [2] of 0.227 µM.
The substance “Chk (K387A) (from UniProt P42679-2 1-508) (enzyme)” gave a fold reduction of kon against wild type Chk with Hck (2PA-YEEI) [1] of 3 fold. The substance also gave a Kd with Hck (2PA-YEEI) [2] of 0.295 µM.

(Values after publication PMC5547543.)
